# Test results reported in article PMC2610422.
# Target: transmembrane glycoprotein gp41 of HIV-1 strain BaL, in the native spike on virions (HIV-1 strain BaL)
# Assay: cryo-EM structure
substance,measurement,value
"transmembrane glycoprotein gp41 of HIV-1 strain BaL, in the native spike on virions (natural protein)",stoichiometry N,3
